Each block holds one substance with its values, some of them ahead of it.
Experiments:
Test in all cases: SEC; 200 uL of purified protein on a Superdex 200 10/30 column in TBS with 5 mM EDTA, pH 7.4, 0.3 mL/min; elution at 280 nm compared with molecular weight standards (12.4 to 443 kDa) and with refolded reference preparations
[1] = target: rfhSP-A refolded using the previous refolding protocol using NTwt (human)
[2] = target: recombinant fragment of human SP-D (rfhSP-D) expressed and isolated as a soluble protein using NT* (human)
[3] = target: rfhSP-D expressed and purified without an expression tag using the standard rfhSP-D purification protocol (human)
[4] = target: recombinant fragment of human SP-A (rfhSP-A) expressed and isolated as a soluble protein using NT* (human)

stoichiometry N [1]: 3
Substance: rfhSP-A refolded using the previous refolding protocol using NTwt (domain or fragment)

percent of the protein eluting at the volume of the trimer [2]: 88.5% | stoichiometry N [2]: 3
Substance: recombinant fragment of human SP-D (rfhSP-D) expressed and isolated as a soluble protein using NT* (domain or fragment)

stoichiometry N [3]: 3
Substance: rfhSP-D expressed and purified without an expression tag using the standard rfhSP-D purification protocol (domain or fragment)

percent of the protein eluting at the volume of the trimer [4]: 24% | stoichiometry N [4]: 3
Substance: recombinant fragment of human SP-A (rfhSP-A) expressed and isolated as a soluble protein using NT* (domain or fragment)

Reference: PMC7422833
